The results in this text go back to patent publication US20250122266A1, “SMART SINGLE-DOMAIN INTRABODIES WITH PRECISION SWITCHES FOR BIOMEDICAL APPLICATIONS” (THE TEXAS A&M UNIVERSITY SYSTEM, priority 2020, published 2025).

For assay [1], the target named is Mito-mCh (AKAP1-mCh, mitochondria-anchored mCherry) (human) (UniProt Q92667). In words: cytosol-to-mitochondria translocation in HeLa cells under light.
Assay [2] addresses ER anchored mCh (mCh fused with human Sac1 residues 521-587) (human) (UniProt Q9NTJ5). In words: cytosol-to-ER translocation in HeLa cells under light.
Assay [3] has as its target NE-tethered SH2 domain of Abl kinase (SH2 fused with mEmerald-lamin A) (UniProt P00519). In words: NE/NP ratio of mCh signal in HeLa cells over light-dark cycles.
Assay [4] addresses Mito-mCh (AKAP1-mCh, mitochondria-anchored mCherry) (human) (UniProt Q92667). In words: Mito-to-cytosol ratio of GFP-caffebody in HeLa cells against caffeine dose; the concentration is that of caffeine, not of a protein.
Assay [5] has the same target. In words: mitochondria translocation assay in HeLa cells, caffeine washed out.
Assay [6] has the same target. In words: mitochondria translocation assay in HeLa cells, 5 µM caffeine.
For assay [7] the target is unchanged. In words: Mito-to-cytosol ratio of GFP-rapabody in HeLa cells against rapamycin dose; the concentration is that of rapamycin, not of a protein.

Where only a bound is given, the exact number is not on record here.

B1: GFP-2xsunbody (dimeric concatemer of sunbody) (VHH, not shown: large carriers)
chain: LATTLERIEKNFVITDPRLPDNPIIFASDSFLQLTEYSREEILGRNCRFLQGPETDRATVRKIRDAIDNQTEVTVQLINYTKSGKKFWNLFHLQPMRDQKGDVQYFIGVQLDGTEHVRDAAEREGVMLIKKTAENIDEAAKELKLMAQVQLVESGGGLVQAGGSLRLSCAVSGRPFSEYNLGWFRQAPGKEREFVARIRSSGTTVYTDSVKGRFSASRDNALERIEKNFVITDPRLPDNPIIFASDSFLQLTEYSREEILGRNCRFLQGPETDRATVRKIRDAIDNQTEVTVQLINYTKSGKKFWNLFHLQPMRDQKGDVQYFIGVQLDGTEHVRDAAEREGVMLIKKTAENIDEAAKNMGYLQLNSLEPEDTAVYYCAMSRVDTDSPAFYDYWGQGTQVTVSTPRSLATTLERIEKNFVITDPRLPDNPIIFASDSFLQLTEYSREEILGRNCRFLQGPETDRATVRKIRDAIDNQTEVTVQLINYTKSGKKFWNLFHLQPMRDQKGDVQYFIGVQLDGTEHVRDAAEREGVMLIKKTAENIDEAAKELKLMAQVQLVESGGGLVQAGGSLRLSCAVSGRPFSEYNLGWFRQAPGKEREFVARIRSSGTTVYTDSVKGRFSASRDNALERIEKNFVITDPRLPDNPIIFASDSFLQLTEYSREEILGRNCRFLQGPETDRATVRKIRDAIDNQTEVTVQLINYTKSGKKFWNLFHLQPMRDQKGDVQYFIGVQLDGTEHVRDAAEREGVMLIKKTAENIDEAAKNMGYLQLNSLEPEDTAVYYCAMSRVDTDSPAFYDYWGQGTQVTVSTPRS
As for B1, the fold increase in the signal-to-background ratio against 1x sunbody in assay [1] and in assay [2] was above 2 fold in each case.

B2: mCh-moonbody (anti-SH2 moonbody, variant S5.1) (designed binder, not shown: large carriers)
chain: VSSVPTKLEVVDATPTSLKISWDAYYSSWQNVKYYRITYGETGGDSPVQEFTVPGYYSTATISGLKPGSGLATTLERIEKNFVITDPRLPDNPIIFASDSFLQLTEYSREEILGRNCRFLQGPETDRATVRKIRDAIDNQTEVTVQLINYTKSGKKFWNLFHLQPMRDQKGDVQYFIGVQLDGTEHVRDAAEREGVMLIKKTAENIDEAAKELGVDYTITVYAYDTFFPGYEPNSPISINYRT
As to B2, in assay [3], the activation half-life (light-induced dissociation from the antigen) worked out at 7.8 s and the deactivation half-life (return to the antigen in the dark) worked out at 46.5 s.

B3: GFP-caffebody (anti-mCh nanobody LaM8 with 2xacVHH in the S3 loop) (VHH, not shown: large carriers)
chain: MAQVQLVESGGGLVQAGGSLRLSCAVSGRPFSEYNLGWFRQAPGKEREFVARIRSSGTTVYTDSVKGRFSASRDNAEVQLQASGGGLVQAGGSLRLSCTASGRTGTIYSMAWFRQAPGKEREFLATVGWSSGITYYMDSVKGRFTISRDNAKNSAYLQMNSLKPEDTAVYYCTATRAYSVGYDYWGQGTQVTVSHAAAGAPVPYPDPLEPREQKLISEEDLLEAVYSGGGGGGGSGGGGGGGSGGGGGGGSGEVQLQASGGGLVQAGGSLRLSCTASGRTGTIYSMAWFRQAPGKEREFLATVGWSSGITYYMDSVKGRFTISRDNAKNSAYLQMNSLKPEDTAVYYCTATRAYSVGYDYWGQGTQVTVSKNMGYLQLNSLEPEDTAVYYCAMSRVDTDSPAFYDYWGQGTQVTVSTPRS
With B3, in assay [4], the EC50 of caffeine (dose of the small-molecule switch) for binding to the antigen worked out at 2.3 µM. Also, the deactivation half-life after withdrawal of caffeine in assay [5] is 23.6 s. This molecule also had a half-life of caffeine-induced translocation to the antigen (t½, on) in assay [6] of 16.3 s.

B4: GFP-rapabody (anti-mCh nanobody LaM8 with UniRapR in the S3 loop) (VHH, not shown: large carriers)
chain: QLVESGGGLVQAGGSLRLSCAVSGRPFSEYNLGWFRQAPGKEREFVARIRSSGTTVYTDSVKGRFSASRDNATCVVHYTGMLEDGKKFDSSRDRNKPFKFMLGKQEVIRGWEEGVAQMSVGQRAKLTISPDYAYGATGHGSGSGSGVKDLLQAWDLYYHVFRRISGPPGPGSGLWHEMWHEGLEEASRLYFGERNVKGMFEVLEPLHAMMERGPQTLKETSFNQAYGRDLMEAQEWCRKYMKSGSSGGSGSGIIPPHATLVFDVELLKLEKNMGYLQLNSLEPEDTAVYYCAMSRVDTDSPAFYDYWGQGTQVTVSTPRS
On to B4, for which the EC50 of rapamycin (dose of the small-molecule switch) for release from the antigen in assay [7] was 1.6 µM.
